The data set in a line: protein stability index of a GFP-peptide fusion (GPS, HEK-293T) (PSI 1-6); higher = more stable. To be noted: c terminus: a fixed tail appended.

± gives the standard deviation.
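Note: 24-mer peptide tiles fused after GFP, lentivirally expressed, FACS-sorted into six equal bins by GFP/DsRed ratio, decoded by Illumina sequencing, PSI is the read-weighted mean bin number.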

Consider IMTQLRQEGWIHHLARHAVACFLT [CRY1], for which the protein stability index came out at 3.02 ± 0.38 (treatment: DMSO) and 2.84 ± 0.61 (treatment: MLN4924 1 uM, 8 h).
On to FLMRKCGWFVRELRVEFAAENYLS [FBXO33], for which the protein stability index (treatment: DMSO) came to 3.06 ± 0.59 and the protein stability index (treatment: MLN4924 1 uM, 8 h) amounted to 2.8 ± 0.35.
In the same order, the values of LDRLKVLMQVHASRSNNMGIVGGF [SLC25A25] are 2.25 ± 0.7 and 2.1 ± 0.36.
As for ALLTGGGSENRNHRLLNMARNNND [RNF180], the protein stability index amounted to 3.7 ± 0.41 (treatment: DMSO) and 3.76 ± 0.35 (treatment: MLN4924 1 uM, 8 h).
WSSRSPQERSRVLNQVADLLEQSL [ALDH8A1]: the protein stability index runs as follows: (treatment: DMSO) 2.8 ± 0.12; (treatment: MLN4924 1 uM, 8 h) 3.08 ± 0.54.
For VCVGSDVTSIHKYMVRRYFNKPSR [MYORG], the protein stability index is 2.37 ± 0.2 (treatment: DMSO) and 2.34 ± 0.18 (treatment: MLN4924 1 uM, 8 h).
Regarding PTYGRSFTLASSSDTRVGAPATGS [CHIT1], the protein stability index is, setting by setting: (treatment: DMSO) 4.29 ± 0.25; (treatment: MLN4924 1 uM, 8 h) 4.12 ± 0.36.
For the sequence VFLNLHTLKFYCLPDNYEIIDSSL [USP39], the protein stability index by setting is: (treatment: DMSO) 3.08 ± 0.48; (treatment: MLN4924 1 uM, 8 h) 2.58 ± 0.33.
Take PNKGLLSDSMTDVPVDTGVAARTP [TPD52L2]: the protein stability index is 4.9 ± 0.17 (treatment: DMSO) and 4.93 ± 0.16 (treatment: MLN4924 1 uM, 8 h).
On to DFLCLLGVSYTFDNEDSELNGDYG [MIA2], for which the protein stability index (treatment: DMSO) stood at 2.24 ± 0.39 and the protein stability index (treatment: MLN4924 1 uM, 8 h) worked out at 2.34 ± 0.44.
With LARLEERSSEFYRVTTEQYQKAAE [CHCHD3], the protein stability index (treatment: DMSO) amounted to 4.29 ± 0.27 and the protein stability index (treatment: MLN4924 1 uM, 8 h) came to 4.29 ± 0.21.
On to DYDLVLAEDEEMNRMHESMKLFDS [GNAI1], for which the protein stability index (treatment: DMSO) was 4.42 ± 0.26 and the protein stability index (treatment: MLN4924 1 uM, 8 h) worked out at 4.84 ± 0.33.
The sequence TVARPVFTEYQASAFGNVKLVVHD [RHOBTB3] displayed a protein stability index (treatment: DMSO) of 3.06 ± 0.33 and a protein stability index (treatment: MLN4924 1 uM, 8 h) of 3.17 ± 0.23.
Consider EEEEEEEDEDDDSADMDESDEDDE [FBXO3], for which the protein stability index reads like this: (treatment: DMSO) 5.37 ± 0.12; (treatment: MLN4924 1 uM, 8 h) 5.38 ± 0.15.
Regarding LLRAKIEVEKLKAIRLRHDLPEYN [RAD54B], the protein stability index is, setting by setting: (treatment: DMSO) 2.69 ± 0.43; (treatment: MLN4924 1 uM, 8 h) 2.75 ± 0.49.
Consider SKLCTSYSHSSTRDGRRDRYSSDT [GOSR1], for which the protein stability index was 4.32 ± 0.25 (treatment: DMSO) and 4.18 ± 0.16 (treatment: MLN4924 1 uM, 8 h).
Sequence SDNSGQVSPPESPTVTTSWQSESL [BCL2L13] yielded a protein stability index (treatment: DMSO) of 5.13 ± 0.2 and a protein stability index (treatment: MLN4924 1 uM, 8 h) of 5.02 ± 0.23.
As to IFRNLCQMQEDNSSFSLLLDLLSE [INTS3], the protein stability index is, setting by setting: (treatment: DMSO) 2.61 ± 0.28; (treatment: MLN4924 1 uM, 8 h) 2.51 ± 0.37.
AFSPIVILTERVSLPFKPFAIILP [MIA2]: the protein stability index (treatment: MLN4924 1 uM, 8 h) amounted to 2.87 ± 0.24.
Consider NKDGIGEICLWGRHIFMGYLESET [ACSBG2], for which the protein stability index is, setting by setting: (treatment: DMSO) 2.29 ± 0.46; (treatment: MLN4924 1 uM, 8 h) 2.02 ± 0.31.
With KVYDDMAFRYLSWILFPLLGCYAV [CLPTM1], the protein stability index came to 3.15 ± 0.23 (treatment: DMSO) and 3.07 ± 0.55 (treatment: MLN4924 1 uM, 8 h).
In the case of RLQRKLVEPKHCFTSPDYQQQCHE [SDE2], the protein stability index is, setting by setting: (treatment: DMSO) 3.67 ± 0.2; (treatment: MLN4924 1 uM, 8 h) 3.69 ± 0.2.
For PAVATLCDLFDREIVVTISWAKSI [ESRRA], the protein stability index is, setting by setting: (treatment: DMSO) 2.65 ± 0.56; (treatment: MLN4924 1 uM, 8 h) 3.36 ± 0.85.
The sequence CKACITRWWEDLERDFPCPVCRKT [TRIM39] gave a protein stability index (treatment: DMSO) of 3.97 ± 0.27 and a protein stability index (treatment: MLN4924 1 uM, 8 h) of 4.25 ± 0.62.
For the sequence YVTTNVSLIPPRSEQLVNFTGKAE [TMEM106C], the protein stability index is 2.49 ± 0.57 (treatment: DMSO) and 2.8 ± 0.68 (treatment: MLN4924 1 uM, 8 h).
Taken in the same sequence, the figures for LVTLPVSFAQLKNLKWLDLKDNPL [LRRC59] were 2.29 ± 0.082 and 2.31 ± 0.23.
Take HNLVVACEIQVRTLASAGGPDNLV [ADD1]: the protein stability index came out at 2.51 ± 0.51 (treatment: DMSO) and 2.38 ± 0.52 (treatment: MLN4924 1 uM, 8 h).
On to ASSVESTLPVLEASSWKKQVSHDF [FBXO34], for which the protein stability index is, setting by setting: (treatment: DMSO) 3.56 ± 0.49; (treatment: MLN4924 1 uM, 8 h) 3.67 ± 0.62.
Turning to LHAPPAFYSTSSGLANGLQLLCPW [VENTX], the protein stability index (treatment: DMSO) came to 2.32 ± 0.1 and the protein stability index (treatment: MLN4924 1 uM, 8 h) stood at 2.27 ± 0.26.

For the origin of these results see the supplement of paper PMC10567573.
